Source: patent publication KR20220081857A (dated 2022)
Residue numbers refer to the chain shown, from its start. Numbers in names are those of the source. Like-named read-outs stand apart in the source and are kept apart here. Blank lines part the entries; values can stand above or below the binder they belong to.

Key:
Assay in all cases: cell-based or functional assay
[1] = target: T1, 인간 OX40L 단백질 (OX40L-his; ACROBiosystems Cat# OXL-H52Q8) (human, UniProt P23510 51-183)
T1 sequence: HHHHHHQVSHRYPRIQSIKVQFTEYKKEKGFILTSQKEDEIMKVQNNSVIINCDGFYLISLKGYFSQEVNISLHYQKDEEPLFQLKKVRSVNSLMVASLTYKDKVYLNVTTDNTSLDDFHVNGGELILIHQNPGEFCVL

[2] = target: T1, 인간 OX40L 단백질 (OX40L-his; ACROBiosystems …); remark: listed apart in the source
[3] = target: 인간 TNFα (ACROBiosystems TNF-H5228) (human, UniProt P01375 77-233)
Sequence of 인간 TNFα (ACROBiosystems TNF-H5228) (P01375 77-233 limits assumed): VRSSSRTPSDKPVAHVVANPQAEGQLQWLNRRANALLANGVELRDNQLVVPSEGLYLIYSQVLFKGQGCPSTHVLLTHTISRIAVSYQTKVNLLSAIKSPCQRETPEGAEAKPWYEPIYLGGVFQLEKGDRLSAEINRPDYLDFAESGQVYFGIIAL

IC50 (nM), OX40L blockade assay [1]: 0.2 nM
IC50 (μg/mL), OX40L blockade assay [1]: 0.03 µg/mL
B4: 항 OX40L 항체 Hu3F07 (antibody, human IgG4 S228P, kappa, V domains shown)
VH: QVQLVQSGAEVKKPGASVKVSCKASGFTFPDYWMHWVRQAPGQGLEWMGEIDPPNGRTNYNEKFKSRVTMTRDTSISTAYMELSRLRSDDTAVYYCARGIYYVDYWGQGTTVTVSS
VL: DIVMTQSPLSLPVTLGEPASISCRSSQSLVHSNGNTYLHWYLQKPGQSPQLLIYKVSNRFSGVPDRFSGSGSGTDFTLKISRVEAEDVGVYYCSQSTHVPPTFGGGTKLEIKR

IC50 (nM), OX40L blockade assay [1]: 0.41 nM
IC50 (μg/mL), OX40L blockade assay [1]: 0.061 µg/mL
B5: 항 OX40L 항체 10H07 (antibody, human IgG4 S228P, kappa, V domains shown)
VH: QVYLQQSGAELVKPGASVKLSCKASGYTFTDYWMHWVKQRPGQGLEWIGEIDPGNGRTNYNEKFKNKATLSVDKSSNTAYMQFSSLTSEDSAVFYCASEGAGRGFPYWGQGTLVTVSA
VL: B4 VL with I2V, M4L, S7T, T14S, E17D, P18Q, Q50K, V88L, Y92F, P101W

IC50 (nM), OX40L blockade assay [1]: 0.85 nM
IC50 (μg/mL), OX40L blockade assay [1]: 0.128 µg/mL
B6: 항 OX40L 항체 21G07 (antibody, human IgG4 S228P, kappa, V domains shown)
VH: QVQLQQSGAELVKPGASVKLSCKASGYTFTNYWMQWVKQRPGQGLEWIGEIDPSDGRTNYNEKFKNKATLTVDRSSSTAYIKLSSLTSEDSAVYYCAREVSLRSMDYWGQGTSVTVSS
VL: B4 VL with M4L, T14S, E17D, P18Q, Q50K, V88L, Y92F, P101F, G105S

More lines, now with the values behind:

B1: 이중 특이성 항체 Hu3F07-TNFαi HC (bispecific antibody)
heavy: not shown
light: DIVMTQSPLSLPVTLGEPASISCRSSQSLVHSNGNTYLHWYLQKPGQSPQLLIYKVSNRFSGVPDRFSGSGSGTDFTLKISRVEAEDVGVYYCSQSTHVPPTFGGGTKLEIKRTVAAPSVFIFPPSDEQLKSGTASVVCLLNNFYPREAKVQWKVDNALQSGNSQESVTEQDSKDSTYSLSSTLTLSKADYEKHKVYACEVTHQGLSSPVTKSFNRGEC
IC50 (nM), OX40L blockade assay [1]: 0.21 nM
IC50 (μg/mL), OX40L blockade assay [1]: 0.041 µg/mL

B2: 이중 특이성 항체 I3F07-TNFαi HC (bispecific antibody)
heavy: not shown
light: B1 light with M4L, T14S, E17D, P18Q, Q50K, V88L, Y92F, T107S
IC50 (nM), OX40L blockade assay [2]: 0.91 nM
IC50 (nM), TNFα blockade assay [3]: 0.055 nM

B3: 이중 특이성 항체 02C09-TNFαi HC (bispecific antibody)
heavy: not shown
light: DIQMTQSPSSLSASLGDRVTITCRASQSIGRWLAWYQQKPGNAPKLLIYKATILESGVPSRFSGSGSGTEFALTISSLQPDDFSAYYCQQYNSYPYTFGQGTKLEIKRTVAAPSVFIFPPSDEQLKSGTASVVCLLNNFYPREAKVQWKVDNALQSGNSQESVTEQDSKDSTYSLSSTLTLSKADYEKHKVYACEVTHQGLSSPVTKSFNRGEC
IC50 (nM), OX40L blockade assay [1]: 0.59 nM
IC50 (μg/mL), OX40L blockade assay [1]: 0.117 µg/mL

B7: reference 항-OX40L 항체 O4L (oxelumab VH/VL) (antibody, human IgG4 S228P, kappa, V domains shown)
VH: EVQLLESGGGLVQPGGSLRLSCAASGFTFNSYAMSWVRQAPGKGLEWVSIISGSGGFTYYADSVKGRFTISRDNSRTTLYLQMNSLRAEDTAVYYCAKDRLVAPGTFDYWGQGALVTVSS
VL: DIQMTQSPSSLSASVGDRVTITCRASQGISSWLAWYQQKPEKAPKSLIYAASSLQSGVPSRFSGSGSGTDFTLTISSLQPEDFATYYCQQYNSYPYTFGQGTKLEIKR
IC50 (nM), OX40L blockade assay [1]: 1.95 nM
IC50 (μg/mL), OX40L blockade assay [1]: 0.293 µg/mL
